B1: High osmolarity signaling protein SHO1 (Saccharomyces cerevisiae), P40073 (parent)
chain: MSISSKIRPTPRKPSRMATDHSFKMKKFYADPFAISSISLAIVSWVIAIGGSISSASTNESFPRFTWWGIVYQFLIICSLMLFYCFDLVDHYRIFITTSIAVAFVYNTNSATNLVYADGPKKAAASAGVILLSIINLIWILYYGGDNASPTNRWIDSFSIKGIRPSPLENSLHRARRRGNRNTTPYQNNVYNDAIRDSGYATQFDGYPQQQPSHTNYVSSTALAGFENTQPNTSEAVNLHLNTLQQRINSASNAKETNDNSNNQTNTNIGNTFDTDFSNGNTETTMGDTLGLYSDIGDDNFIYKAKALYPYDADDDDAYEISFEQNEILQVSDIEGRWWKARRANGETGIIPSNYVQLIDGPEEMHR
partner: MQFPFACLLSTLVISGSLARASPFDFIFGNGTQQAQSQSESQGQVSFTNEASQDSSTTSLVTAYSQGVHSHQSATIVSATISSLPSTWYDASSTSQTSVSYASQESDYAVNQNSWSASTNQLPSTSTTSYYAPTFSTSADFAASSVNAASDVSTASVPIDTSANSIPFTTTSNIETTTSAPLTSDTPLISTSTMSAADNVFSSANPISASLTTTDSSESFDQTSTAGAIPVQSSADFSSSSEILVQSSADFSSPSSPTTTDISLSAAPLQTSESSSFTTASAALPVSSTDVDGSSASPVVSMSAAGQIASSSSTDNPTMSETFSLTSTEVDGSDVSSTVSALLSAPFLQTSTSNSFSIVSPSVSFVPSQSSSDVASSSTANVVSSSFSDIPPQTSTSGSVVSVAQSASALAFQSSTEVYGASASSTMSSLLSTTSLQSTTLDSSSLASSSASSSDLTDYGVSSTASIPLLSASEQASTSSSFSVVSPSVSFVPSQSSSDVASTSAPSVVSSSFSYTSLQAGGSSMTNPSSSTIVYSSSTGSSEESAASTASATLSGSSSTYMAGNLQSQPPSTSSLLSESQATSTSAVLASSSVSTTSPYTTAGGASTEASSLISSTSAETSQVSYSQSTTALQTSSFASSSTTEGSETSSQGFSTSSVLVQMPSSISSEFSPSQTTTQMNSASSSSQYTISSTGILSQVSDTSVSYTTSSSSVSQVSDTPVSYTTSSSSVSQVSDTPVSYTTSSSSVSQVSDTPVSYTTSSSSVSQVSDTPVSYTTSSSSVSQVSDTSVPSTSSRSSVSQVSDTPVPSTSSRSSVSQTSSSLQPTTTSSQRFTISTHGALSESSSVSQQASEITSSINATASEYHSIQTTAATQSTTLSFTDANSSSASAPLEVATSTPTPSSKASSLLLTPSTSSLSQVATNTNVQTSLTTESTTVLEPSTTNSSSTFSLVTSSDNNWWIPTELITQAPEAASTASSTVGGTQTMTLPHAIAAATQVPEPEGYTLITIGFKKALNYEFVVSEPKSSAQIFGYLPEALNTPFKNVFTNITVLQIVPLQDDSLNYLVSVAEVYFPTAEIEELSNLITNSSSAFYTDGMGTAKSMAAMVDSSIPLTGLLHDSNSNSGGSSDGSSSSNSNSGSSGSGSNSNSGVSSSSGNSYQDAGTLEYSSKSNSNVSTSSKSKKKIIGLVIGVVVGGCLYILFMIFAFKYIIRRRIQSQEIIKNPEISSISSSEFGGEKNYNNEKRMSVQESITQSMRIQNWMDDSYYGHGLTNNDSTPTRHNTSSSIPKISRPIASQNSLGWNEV
B2: High osmolarity signaling protein SHO1 (Saccharomyces cerevisiae), P40073 (parent)
chain: B1 chain

Variants of: B1
Details: with msb2_yeast MSB2, P32334

Row | effect of a mutation on the interaction | Variant
1 | decreasing interaction | T108I
2 | decreasing interaction | Y106H

Variants of: B2
Details: with hkr1_yeast HKR1, P41809
hkr1_yeast HKR1, P41809, sequence (P41809 whole entry): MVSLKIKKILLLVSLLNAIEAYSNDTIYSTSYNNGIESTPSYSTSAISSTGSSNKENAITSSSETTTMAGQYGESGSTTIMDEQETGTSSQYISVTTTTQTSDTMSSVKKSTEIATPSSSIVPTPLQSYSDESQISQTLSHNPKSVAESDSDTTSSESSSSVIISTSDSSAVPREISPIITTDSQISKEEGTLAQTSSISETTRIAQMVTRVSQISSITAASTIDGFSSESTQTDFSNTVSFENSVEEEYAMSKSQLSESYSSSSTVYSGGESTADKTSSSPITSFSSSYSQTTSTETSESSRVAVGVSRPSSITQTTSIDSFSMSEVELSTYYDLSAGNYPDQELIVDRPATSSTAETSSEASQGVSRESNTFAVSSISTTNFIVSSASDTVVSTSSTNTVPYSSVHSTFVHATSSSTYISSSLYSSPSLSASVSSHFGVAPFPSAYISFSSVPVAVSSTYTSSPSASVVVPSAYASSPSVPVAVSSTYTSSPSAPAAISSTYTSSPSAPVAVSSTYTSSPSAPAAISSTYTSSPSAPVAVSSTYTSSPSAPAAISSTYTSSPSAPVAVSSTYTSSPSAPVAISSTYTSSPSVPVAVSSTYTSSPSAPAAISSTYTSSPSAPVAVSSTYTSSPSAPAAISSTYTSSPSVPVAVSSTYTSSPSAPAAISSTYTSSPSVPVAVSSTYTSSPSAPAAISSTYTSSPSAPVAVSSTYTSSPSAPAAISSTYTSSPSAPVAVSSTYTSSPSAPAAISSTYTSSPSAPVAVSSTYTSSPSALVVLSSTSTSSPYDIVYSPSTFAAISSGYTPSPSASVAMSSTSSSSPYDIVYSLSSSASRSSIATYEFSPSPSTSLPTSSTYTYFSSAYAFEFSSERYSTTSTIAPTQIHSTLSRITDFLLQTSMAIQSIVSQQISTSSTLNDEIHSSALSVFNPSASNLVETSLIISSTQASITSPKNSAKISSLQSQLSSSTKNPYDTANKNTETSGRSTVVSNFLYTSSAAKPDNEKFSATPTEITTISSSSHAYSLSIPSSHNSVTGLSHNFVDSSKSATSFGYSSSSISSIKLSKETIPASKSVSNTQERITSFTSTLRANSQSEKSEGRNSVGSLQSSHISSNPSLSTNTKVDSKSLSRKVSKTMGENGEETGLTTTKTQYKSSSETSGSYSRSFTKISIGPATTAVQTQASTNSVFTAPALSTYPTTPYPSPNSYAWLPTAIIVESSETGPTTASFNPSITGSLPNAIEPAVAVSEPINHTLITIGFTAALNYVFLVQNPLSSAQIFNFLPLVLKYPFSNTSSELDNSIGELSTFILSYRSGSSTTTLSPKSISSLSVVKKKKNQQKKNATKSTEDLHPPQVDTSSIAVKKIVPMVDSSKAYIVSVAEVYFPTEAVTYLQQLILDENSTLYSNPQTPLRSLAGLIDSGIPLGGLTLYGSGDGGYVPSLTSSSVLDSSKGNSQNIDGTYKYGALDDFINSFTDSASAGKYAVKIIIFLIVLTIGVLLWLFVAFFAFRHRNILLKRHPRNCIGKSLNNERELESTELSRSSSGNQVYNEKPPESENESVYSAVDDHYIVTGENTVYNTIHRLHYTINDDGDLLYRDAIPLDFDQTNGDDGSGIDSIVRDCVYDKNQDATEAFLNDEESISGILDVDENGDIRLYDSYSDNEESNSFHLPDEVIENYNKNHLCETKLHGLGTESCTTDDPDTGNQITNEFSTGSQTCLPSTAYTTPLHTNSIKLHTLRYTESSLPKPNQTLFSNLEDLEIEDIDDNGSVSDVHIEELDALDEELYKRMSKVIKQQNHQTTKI

Row | effect of a mutation on the interaction | Variant
3 | decreasing interaction | T108I
4 | decreasing interaction | Y106H

From IntAct's records for PubMed 17627274
